US20180030151A1 (MOGAM INSTITUTE FOR BIOMEDICAL RESEARCH, published 2018)
Numbering of substitutions follows the chain as printed. Each block holds one binder with its values, some of them ahead of it.

Experiments:
[1] = biological target: T1, recombinant human TFPI (tissue factor pathway inhibitor) (human, UniProt P10646 29-304); assay: cell-based or functional assay
[2] = biological target: T1, recombinant human TFPI (tissue factor …); assay: cell-based or functional assay; remark: listed apart in the source
[3] = biological target: T1, recombinant human TFPI (tissue factor …); assay: SPR, Biacore T-200; IgG captured on protein A (CM5), TFPI as analyte
Method: Dissociation of the TFPI associated with the antibody was induced by running 10 mM glycine-HCl (pH 1.5) at a flow rate for 30 seconds. The affinities in terms of kinetic rate constants (Kₒₙ and Koff) and equilibrium dissociation constant (KD) were evaluated using Biacore T-200 evaluation software, and the results are shown in Table 24 below.

[4] = biological target: T1, recombinant human TFPI (tissue factor …); assay: cell-based or functional assay; remark: listed apart in the source
[5] = biological target: T1, recombinant human TFPI (tissue factor …); assay: cell-based or functional assay; remark: listed apart in the source

FXa assay % of FXa alone, 2.5 nM Ab, 10 nM TFPI [1]: 7.4%
FXa assay % of FXa alone, 5 nM Ab, 10 nM TFPI [1]: 38.8%
FXa assay OD, 2.5 nM Ab, 10 nM TFPI [1]: 0.0615
FXa assay OD, 5 nM Ab, 10 nM TFPI [1]: 0.321
FXa assay OD, 10 nM Ab, 10 nM TFPI [1]: 0.68
FXa assay OD, 20 nM Ab, 10 nM TFPI [1]: 0.678
% of Normalized, TF/FVIIa/FX complex assay, Ab 1.56 nM [2]: 4.8%
% of Normalized, TF/FVIIa/FX complex assay, Ab 3.13 nM [2]: 5.6%
% of Normalized, TF/FVIIa/FX complex assay, Ab 6.25 nM [2]: 7.8%
% of Normalized, TF/FVIIa/FX complex assay, Ab 12.5 nM [2]: 11.4%
% of Normalized, TF/FVIIa/FX complex assay, Ab 25 nM [2]: 57.7%
% of Normalized, TF/FVIIa/FX complex assay, Ab 50 nM [2]: 94.6%
% of Normalized, TF/FVIIa/FX complex assay, Ab 100 nM [2]: 99.9%
Kd [3]: 8.19 pM
effect of inhibiting TFPI, FXa activity assay, Ab 10 nM [4]: ~82%
effect of inhibiting TFPI, FXa activity assay, Ab 20 nM [4]: ~82%
A405, TF/FVIIa/FX complex assay, Ab 1.56 nM [5]: 0.041
A405, TF/FVIIa/FX complex assay, Ab 3.13 nM [5]: 0.048
A405, TF/FVIIa/FX complex assay, Ab 6.25 nM [5]: 0.067
A405, TF/FVIIa/FX complex assay, Ab 12.5 nM [5]: 0.097
A405, TF/FVIIa/FX complex assay, Ab 25 nM [5]: 0.489
A405, TF/FVIIa/FX complex assay, Ab 50 nM [5]: 0.803
A405, TF/FVIIa/FX complex assay, Ab 100 nM [5]: 0.847
B1: clone 12 (antibody, V domains shown)
VH: EVQLVESGGGLVKPGGSLRLSCAASGFTFSSYAMNWVRQAPGKGLEWVGTITTGGSHTYYADSVEGRFTISRDNAKNSLYLQMNSLRAEDTAVYYCARQDGHFLMDYWGQGTLVTVSS
VL: DVVMTQTPLSLPVTLGQPASISCKSSPSLLDIDGKTYLNWLQQRPGQSPKRLIYLVSKLDSGVPDRFTGSGSGTDFTLKISRVEAEDVGVYYCWQGTHFPFTFGQGTKVEIKR
notes: human IgG4/kappa IgG as purified; also called No. 12 antibody

FXa assay % of FXa alone, 2.5 nM Ab, 10 nM TFPI [1]: 7.3%
FXa assay % of FXa alone, 5 nM Ab, 10 nM TFPI [1]: 46.2%
FXa assay OD, 2.5 nM Ab, 10 nM TFPI [1]: 0.0605
FXa assay OD, 5 nM Ab, 10 nM TFPI [1]: 0.382
FXa assay OD, 10 nM Ab, 10 nM TFPI [1]: 0.676
FXa assay OD, 20 nM Ab, 10 nM TFPI [1]: 0.72
% of Normalized, TF/FVIIa/FX complex assay, Ab 1.56 nM [2]: 5.1%
% of Normalized, TF/FVIIa/FX complex assay, Ab 3.13 nM [2]: 6%
% of Normalized, TF/FVIIa/FX complex assay, Ab 6.25 nM [2]: 6.9%
% of Normalized, TF/FVIIa/FX complex assay, Ab 12.5 nM [2]: 10.7%
% of Normalized, TF/FVIIa/FX complex assay, Ab 25 nM [2]: 60%
% of Normalized, TF/FVIIa/FX complex assay, Ab 50 nM [2]: 99.4%
% of Normalized, TF/FVIIa/FX complex assay, Ab 100 nM [2]: 101%
Kd [3]: 9.47 pM
effect of inhibiting TFPI, FXa activity assay, Ab 10 nM [4]: ~82%
effect of inhibiting TFPI, FXa activity assay, Ab 20 nM [4]: ~87%
A405, TF/FVIIa/FX complex assay, Ab 1.56 nM [5]: 0.043
A405, TF/FVIIa/FX complex assay, Ab 3.13 nM [5]: 0.051
A405, TF/FVIIa/FX complex assay, Ab 6.25 nM [5]: 0.059
A405, TF/FVIIa/FX complex assay, Ab 12.5 nM [5]: 0.091
A405, TF/FVIIa/FX complex assay, Ab 25 nM [5]: 0.509
A405, TF/FVIIa/FX complex assay, Ab 50 nM [5]: 0.843
A405, TF/FVIIa/FX complex assay, Ab 100 nM [5]: 0.859
B2: clone 1202 (antibody, V domains shown)
VH: B1 VH with H57Y, E65D, Q82K, H102N
VL: B1 VL with P27Q
notes: scFv on yeast at selection; human IgG4/kappa IgG as purified; also called No. 1202 antibody
